Measured values from PMC2629775.

What was measured:
[1] = molecular target: Mycobacterium leprae small heat shock protein (sHsp18) (Mycobacterium leprae); test: SEC; as a1 but after extended dialysis against PBS; data not shown
[2] = molecular target: Mycobacterium leprae small heat shock protein (sHsp18) (Mycobacterium leprae); test: native gel or EMSA; non-denaturing 7.5% polyacrylamide gel of MagneHis-purified sHsp18, against high molecular weight markers, Coomassie stain
[3] = molecular target: Mycobacterium leprae small heat shock protein (sHsp18) (Mycobacterium leprae); test: SEC; Sephacryl column; sHsp18 purified by denaturing method, dialysed against 50 mM PBS with 200 mM NaCl, pH 7.2, 4°C, 6 hrs, acetone precipitated, resuspended in PBS

- stoichiometry N [1]: 9
- stoichiometry N [2]: 9
- stoichiometry N [3]: 6
Substance: Mycobacterium leprae small heat shock protein (sHsp18) (natural protein)
